Assay results: patent publication US20180251535A1 (ARMAGEN, published 2018)

Experiments:
[1] = molecular target: human insulin receptor extracellular domain (HIR ECD) (human) (UniProt P06213); assay: ELISA, HIR ECD plated
[2] = molecular target: human insulin receptor extracellular domain (HIR ECD) (human) (UniProt P06213); assay: ELISA, HIR ECD plated, detection with biotinylated goat anti-human IgG
[3] = molecular target: T1, human insulin receptor extracellular domain (HIR ECD) (human, UniProt P06213 28-956, limits assumed); assay: ELISA, HIR ECD plated, same methods as for FIG. 11
T1 construct: extracellular domain; Purified on a wheat germ agglutinin column from serum free medium of CHO cells permanently transfected with the HIR ECD (Coloma et al. 2000)
Procedure: (§1) The affinity of the fusion protein for the HIR extracellular domain (ECD) was determined with an ELISA. CHO cells permanently transfected with the HIR ECD were grown in serum free media (SFM), and the HIR ECD was purified with a wheat germ agglutinin affinity column, as previously described in Coloma et al. (2000) Pharm Res, 17:266-274. The HIR ECD was plated on Nunc-Maxisorb 96 well dishes and the binding of the HIR Ab, or the HIR Ab-IDS fusion protein, to the HIR ECD was detected with a biotinylated goat anti-human IgG (H+L) secondary antibody, followed by avidin and biotinylated peroxidase (Vector Labs, Burlingame, CA). The concentration of either HIR Ab or HIR Ab-IDS fusion protein that gave 50% maximal binding was determined with a non-linear regression analysis.

[4] = molecular target: T1, human insulin receptor extracellular …; assay: ELISA, HIR ECD plated on Nunc-Maxisorb wells, detection with biotinylated goat anti-human IgG
Procedure: as §1

| Molecule | reduction in receptor binding affinity (against the HIR Ab) [1] | EC50 [2] | EC50 [3] | EC50 [4] |
| --- | --- | --- | --- | --- |
| GUSB-HIR Ab fusion protein (GUSB fused to the amino terminus of the HIR Ab heavy chain) (from UniProt P08236 23-633) | 95% | 4.8 nM | – | – |
| chimeric HIRMAb (chimeric monoclonal antibody to the human insulin receptor) (antibody, human IgG1, kappa, V domains shown, Human IgG1 constant region, kappa light chain; also called HIR Ab; chimeric HIR Ab) VH: QVQLQQSGPELVKPGALVKISCKASGYTFTNYDIHWVKQRPGQGLEWIGWIYPGDGSTKYNEKFKGKATLTADKSSSTAYMHLSSLTSEKSAVYFCAREWAYWGQGTLVTVSA VL: DIQMTQSPSSLSASLGERVSLTCRASQDIGGNLYWLQQGPDGTIKRLIYATSSLDSGVPKRFSGSRSGSDYSLTISSLESEDFVDYYCLQYSSSPWTFGGGTKMEIKR | – | – | 0.41 nM | 0.32 nM |
